Test results taken from the supplement of paper PMC9112550, “Optimization of the antimicrobial peptide Bac7 by deep mutational scanning” (BMC Biology, 2022).

Test system: Escherichia coli TOP10
Assay: shrunken log2 fold change of peptide-encoding DNA abundance (4.5 h post-induction vs induction); higher = less antimicrobial activity (less host growth inhibition)
Settings: time post-induction: 4.5 h; library: site-saturation at positions 5, 18, 19, 20
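Further: peptides expressed intracellularly from a pBAD plasmid library in pooled LB shake-flask culture, induced with 0.3% L-arabinose, DNA abundance read by NGS, three biological replicates, DESeq2 with apeglm shrinkage.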

Sequence | shrunken log2 fold change
RRIRTRPPRLPRPRPRPFSVPRP | 0.0234
RRIRRRPPRLPRPRPRPDDNPRP | 0.18
RRIRGRPPRLPRPRPRPCWMPRP | 0.301
RRIRWRPPRLPRPRPRPDGNPRP | 0.276
RRIRKRPPRLPRPRPRPSTRPRP | -0.114
RRIRFRPPRLPRPRPRPDTFPRP | -0.144
RRIRYRPPRLPRPRPRPWHHPRP | -0.271
RRIRFRPPRLPRPRPRPRIVPRP | -0.267
RRIRYRPPRLPRPRPRPVIIPRP | -0.156
RRIRRRPPRLPRPRPRPFSDPRP | -0.311
RRIRARPPRLPRPRPRPVCCPRP | 0.573
RRIRGRPPRLPRPRPRPNERPRP | 0.108
RRIRQRPPRLPRPRPRPTILPRP | 0.939
RRIRPRPPRLPRPRPRPMKMPRP | -0.148
RRIRGRPPRLPRPRPRPSQAPRP | 0.612
RRIRGRPPRLPRPRPRPLCYPRP | 0.238
RRIRIRPPRLPRPRPRPFPTPRP | 0.0232
RRIRPRPPRLPRPRPRPHSQPRP | -0.134
RRIRGRPPRLPRPRPRPKHHPRP | 0.309
RRIRRRPPRLPRPRPRPKYQPRP | -0.017
RRIRMRPPRLPRPRPRPEQVPRP | 0.493
RRIRFRPPRLPRPRPRPAFVPRP | -0.028

Sequence | shrunken log2 fold change
RRIRERPPRLPRPRPRPGRGPRP | 0.436
RRIRRRPPRLPRPRPRPRSCPRP | 0.182
RRIRCRPPRLPRPRPRPNMPPRP | -0.627
RRIRSRPPRLPRPRPRPMWKPRP | -0.101
RRIRSRPPRLPRPRPRPWVYPRP | -0.14
RRIRCRPPRLPRPRPRPHEVPRP | 0.104
RRIRCRPPRLPRPRPRPGGVPRP | 0.42
RRIRCRPPRLPRPRPRPIMIPRP | -0.566
RRIRRRPPRLPRPRPRPMAMPRP | -0.011
RRIRVRPPRLPRPRPRPRQEPRP | -0.0401
RRIRDRPPRLPRPRPRPSWFPRP | -0.192
RRIRCRPPRLPRPRPRPAVCPRP | 0.297
RRIRQRPPRLPRPRPRPTFCPRP | -0.0744
RRIRSRPPRLPRPRPRPDLYPRP | -0.171
RRIRNRPPRLPRPRPRPASPPRP | 0.154
RRIRERPPRLPRPRPRPEEFPRP | -0.0217
RRIRIRPPRLPRPRPRPKWLPRP | 0.0546
RRIRKRPPRLPRPRPRPRQYPRP | 0.0199
RRIRGRPPRLPRPRPRPTRWPRP | 0.739
RRIRSRPPRLPRPRPRPHFTPRP | -0.256
RRIRGRPPRLPRPRPRPARPPRP | 0.63
RRIRGRPPRLPRPRPRPMFYPRP | 1.07

Sequence | shrunken log2 fold change
RRIRARPPRLPRPRPRPMTEPRP | 0.356
RRIRTRPPRLPRPRPRPCTPPRP | -0.214
RRIRQRPPRLPRPRPRPPLPPRP | 0.424
RRIRGRPPRLPRPRPRPVKSPRP | 0.0201
RRIRARPPRLPRPRPRPKIWPRP | 0.53
RRIRTRPPRLPRPRPRPMWEPRP | -0.0158
RRIRARPPRLPRPRPRPMFIPRP | 0.0587
RRIRYRPPRLPRPRPRPWQVPRP | -0.09
RRIRCRPPRLPRPRPRPTVVPRP | -0.127
RRIRIRPPRLPRPRPRPDAYPRP | -0.0729
RRIRCRPPRLPRPRPRPDRGPRP | 0.0229
RRIRQRPPRLPRPRPRPLRDPRP | 0.082
RRIRCRPPRLPRPRPRPFQVPRP | -0.335
RRIRARPPRLPRPRPRPSWNPRP | -0.19
RRIRMRPPRLPRPRPRPNTMPRP | 0.0324
RRIRQRPPRLPRPRPRPLSWPRP | 0.485
RRIRSRPPRLPRPRPRPAICPRP | 0.147
RRIRHRPPRLPRPRPRPTDTPRP | -0.116
RRIRVRPPRLPRPRPRPWSFPRP | -0.225
RRIRWRPPRLPRPRPRPCNRPRP | -0.0268
RRIRCRPPRLPRPRPRPIGSPRP | -0.139
RRIRYRPPRLPRPRPRPCPQPRP | -0.0849

Sequence | shrunken log2 fold change
RRIRCRPPRLPRPRPRPRMHPRP | 0.066
RRIRHRPPRLPRPRPRPMPWPRP | -0.032
RRIRYRPPRLPRPRPRPGTSPRP | -0.0454
RRIRMRPPRLPRPRPRPHWVPRP | -0.0142
RRIRRRPPRLPRPRPRPTAMPRP | 0.78
RRIRRRPPRLPRPRPRPWDTPRP | -0.139
RRIRFRPPRLPRPRPRPRPDPRP | 0.282
RRIRWRPPRLPRPRPRPQCNPRP | -0.0929
RRIRGRPPRLPRPRPRPETTPRP | 2.32
RRIRWRPPRLPRPRPRPGRQPRP | -0.00663
RRIRERPPRLPRPRPRPDKMPRP | -0.0703
RRIRVRPPRLPRPRPRPCMIPRP | -0.792
RRIRDRPPRLPRPRPRPSRDPRP | 0.00173
RRIRSRPPRLPRPRPRPFYFPRP | -0.55
RRIRRRPPRLPRPRPRPKCEPRP | 0.0268
RRIRVRPPRLPRPRPRPVHMPRP | -0.0089
RRIRTRPPRLPRPRPRPTNWPRP | 0.155
RRIRWRPPRLPRPRPRPQTMPRP | -0.00112
RRIRLRPPRLPRPRPRPQNCPRP | 0.0117
RRIRGRPPRLPRPRPRPIQTPRP | 0.0411
RRIRCRPPRLPRPRPRPTYRPRP | 0.0231
RRIRPRPPRLPRPRPRPNMVPRP | -0.772

Sequence | shrunken log2 fold change
RRIRVRPPRLPRPRPRPTAFPRP | 0.0786
RRIRKRPPRLPRPRPRPSHWPRP | 0.275
RRIRWRPPRLPRPRPRPWTYPRP | -0.0122
RRIRTRPPRLPRPRPRPSPMPRP | -0.163
RRIRSRPPRLPRPRPRPGSAPRP | 0.231
RRIRNRPPRLPRPRPRPQHRPRP | -0.215
RRIRHRPPRLPRPRPRPDQEPRP | -0.01
RRIRKRPPRLPRPRPRPVNWPRP | 0.192
RRIRVRPPRLPRPRPRPIDSPRP | -0.0289
RRIRSRPPRLPRPRPRPVEIPRP | -0.0626
RRIRNRPPRLPRPRPRPISTPRP | -0.507
RRIRVRPPRLPRPRPRPHKEPRP | 0.0216
RRIRTRPPRLPRPRPRPDNYPRP | -0.0497
RRIRFRPPRLPRPRPRPGRIPRP | 0.0413
RRIRQRPPRLPRPRPRPKKYPRP | -0.0221
RRIRRRPPRLPRPRPRPRYVPRP | 0.147
RRIRYRPPRLPRPRPRPSGLPRP | -0.078
RRIRSRPPRLPRPRPRPKHLPRP | -0.466
RRIRVRPPRLPRPRPRPIGMPRP | 0.211
RRIRHRPPRLPRPRPRPAGWPRP | 0.449
RRIRARPPRLPRPRPRPYTSPRP | 0.0229
